Test results from IntAct's records for PubMed 16127465.

B1: Growth/differentiation factor 5 (Homo sapiens), P43026 (parent)
chain: MRLPKLLTFLLWYLAWLDLEFICTVLGAPDLGQRPQGTRPGLAKAEAKERPPLARNVFRPGGHSYGGGATNANARAKGGTGQTGGLTQPKKDEPKKLPPRPGGPEPKPGHPPQTRQATARTVTPKGQLPGGKAPPKAGSVPSSFLLKKAREPGPPREPKEPFRPPPITPHEYMLSLYRTLSDADRKGGNSSVKLEAGLANTITSFIDKGQDDRGPVVRKQRYVFDISALEKDGLLGAELRILRKKPSDTAKPAAPGGGRAAQLKLSSCPSGRQPAALLDVRSVPGLDGSGWEVFDIWKLFRNFKNSAQLCLELEAWERGRAVDLRGLGFDRAARQVHEKALFLVFGRTKKRDLFFNEIKARSGQDDKTVYEYLFSQRRKRRAPLATRQGKRPSKNLKARCSRKALHVNFKDMGWDDWIIAPLEYEAFHCEGLCEFPLRSHLEPTNHAVIQTLMNSMDPESTPPTCCVPTRLSPISILFIDSANNVVYKQYEDMVVESCGCR

Variants of: B1
Conditions: with bmr1a_human BMPR1A

| effect of a mutation on the interaction | Variant |
| --- | --- |
| increasing interaction strength | MRLPKLLTFLLWYLAWLDLEFICTVLGAPDLGQRPQGTRPGLAKAEAKERPPLARNVFRPGGHSYGGGATNANARAKGGTGQTGGLTQPKKDEPKKLPPRPGGPEPKPGHPPQTRQATARTVTPKGQLPGGKAPPKAGSVPSSFLLKKAREPGPPREPKEPFRPPPITPHEYMLSLYRTLSDADRKGGNSSVKLEAGLANTITSFIDKGQDDRGPVVRKQRYVFDISALEKDGLLGAELRILRKKPSDTAKPAAPGGGRAAQLKLSSCPSGRQPAALLDVRSVPGLDGSGWEVFDIWKLFRNFKNSAQLCLELEAWERGRAVDLRGLGFDRAARQVHEKALFLVFGRTKKRDLFFNEIKARSGQDDKTVYEYLFSQRRKRRAPLATRQGKRPSKNLKARCSRKALHVNFKDMGWDDWIIAPLEYEAFHCEGLCEFPLLSHLEPTNHAVIQTLMNSMDPESTPPTCCVPTRLSPISILFIDSANNVVYKQYEDMVVESCGCR [R438L] |

Variants of: B1
Conditions: with bmr1b_human BMPR1B

| effect of a mutation on the interaction | Variant |
| --- | --- |
| decreasing interaction strength | MRLPKLLTFLLWYLAWLDLEFICTVLGAPDLGQRPQGTRPGLAKAEAKERPPLARNVFRPGGHSYGGGATNANARAKGGTGQTGGLTQPKKDEPKKLPPRPGGPEPKPGHPPQTRQATARTVTPKGQLPGGKAPPKAGSVPSSFLLKKAREPGPPREPKEPFRPPPITPHEYMLSLYRTLSDADRKGGNSSVKLEAGLANTITSFIDKGQDDRGPVVRKQRYVFDISALEKDGLLGAELRILRKKPSDTAKPAAPGGGRAAQLKLSSCPSGRQPAALLDVRSVPGLDGSGWEVFDIWKLFRNFKNSAQLCLELEAWERGRAVDLRGLGFDRAARQVHEKALFLVFGRTKKRDLFFNEIKARSGQDDKTVYEYLFSQRRKRRAPLATRQGKRPSKNLKARCSRKALHVNFKDMGWDDWIIAPLEYEAFHCEGLCEFPLRSHPEPTNHAVIQTLMNSMDPESTPPTCCVPTRLSPISILFIDSANNVVYKQYEDMVVESCGCR [L441P] |
